Numbering of substitutions follows the chain as printed.

Assay in all cases: EMSA
What all share (conditions): EMSA: binding buffer 100 mM Tris-HCl pH 8, 375 mM NaCl, 25 mM MgCl2, 5 mM DTT, 65% glycerol [sic]; about 1 nmol DNA in 20 ul, 25 C …

The target in series [1] is T1, Lrp K25Q K25Q (Salmonella Typhimurium 14028s) (UniProt A0A0F6AZA3).
T1 sequence: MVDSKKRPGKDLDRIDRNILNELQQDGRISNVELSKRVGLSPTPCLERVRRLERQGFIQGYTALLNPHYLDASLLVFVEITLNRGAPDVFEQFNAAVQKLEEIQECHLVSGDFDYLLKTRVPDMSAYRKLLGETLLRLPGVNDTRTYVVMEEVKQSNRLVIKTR

For series [2], the target named is T2, Lrp K36Q K36Q (Salmonella Typhimurium 14028s) (UniProt A0A0F6AZA3).
T2 sequence: T1 sequence with Q25K, K36Q

The target in series [3] is T3, Lrp K36R K36R (Salmonella Typhimurium 14028s) (UniProt A0A0F6AZA3).
T3 sequence: T1 sequence with Q25K, K36R

For series [4], the target named is T4, Lrp wild type (Salmonella Typhimurium 14028s) (UniProt A0A0F6AZA3).
T4 sequence: T1 sequence with Q25K

As to “ACACAGTGGAGCAATAATAAAGAATGAGACCTCCCTGTTGACTGGCTATTTTGCGTAAGAGTAATAAATATGTGGAATATCCATTTCGCACCAACAAAAAAGAAATTTCTGATTAAGTAAAAACAATATGGATTATACCTGGTCTGATTTCTCGGAAAAGTCTTGCGAAATGCGAATTATGGATAGCGGGTAGGATATTCTG (double strand) [fimZ promoter]”, the binding entry in series [1] is given as “binds”; in series [2], “binds more weakly”; in series [3] it was “binds”; in series [4], “binds”.

Source of the values: PMC5112231.
